From publication PMC6344864 (Nucleic Acids Research, 2018)

T1: His6-tagged Dmc1 (Saccharomyces cerevisiae, UniProt P25453 1-334)
T1 sequence (looked up): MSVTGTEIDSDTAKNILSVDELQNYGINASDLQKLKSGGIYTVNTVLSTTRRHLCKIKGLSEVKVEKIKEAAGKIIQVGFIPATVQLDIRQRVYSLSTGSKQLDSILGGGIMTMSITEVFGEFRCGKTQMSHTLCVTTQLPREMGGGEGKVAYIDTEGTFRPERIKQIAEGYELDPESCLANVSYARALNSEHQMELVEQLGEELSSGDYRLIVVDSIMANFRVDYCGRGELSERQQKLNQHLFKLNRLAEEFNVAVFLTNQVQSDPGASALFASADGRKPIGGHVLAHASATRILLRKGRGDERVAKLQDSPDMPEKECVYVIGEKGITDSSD

T2: Rdh54/Tid1 (Saccharomyces cerevisiae, UniProt P38086 1-958)
T2 sequence: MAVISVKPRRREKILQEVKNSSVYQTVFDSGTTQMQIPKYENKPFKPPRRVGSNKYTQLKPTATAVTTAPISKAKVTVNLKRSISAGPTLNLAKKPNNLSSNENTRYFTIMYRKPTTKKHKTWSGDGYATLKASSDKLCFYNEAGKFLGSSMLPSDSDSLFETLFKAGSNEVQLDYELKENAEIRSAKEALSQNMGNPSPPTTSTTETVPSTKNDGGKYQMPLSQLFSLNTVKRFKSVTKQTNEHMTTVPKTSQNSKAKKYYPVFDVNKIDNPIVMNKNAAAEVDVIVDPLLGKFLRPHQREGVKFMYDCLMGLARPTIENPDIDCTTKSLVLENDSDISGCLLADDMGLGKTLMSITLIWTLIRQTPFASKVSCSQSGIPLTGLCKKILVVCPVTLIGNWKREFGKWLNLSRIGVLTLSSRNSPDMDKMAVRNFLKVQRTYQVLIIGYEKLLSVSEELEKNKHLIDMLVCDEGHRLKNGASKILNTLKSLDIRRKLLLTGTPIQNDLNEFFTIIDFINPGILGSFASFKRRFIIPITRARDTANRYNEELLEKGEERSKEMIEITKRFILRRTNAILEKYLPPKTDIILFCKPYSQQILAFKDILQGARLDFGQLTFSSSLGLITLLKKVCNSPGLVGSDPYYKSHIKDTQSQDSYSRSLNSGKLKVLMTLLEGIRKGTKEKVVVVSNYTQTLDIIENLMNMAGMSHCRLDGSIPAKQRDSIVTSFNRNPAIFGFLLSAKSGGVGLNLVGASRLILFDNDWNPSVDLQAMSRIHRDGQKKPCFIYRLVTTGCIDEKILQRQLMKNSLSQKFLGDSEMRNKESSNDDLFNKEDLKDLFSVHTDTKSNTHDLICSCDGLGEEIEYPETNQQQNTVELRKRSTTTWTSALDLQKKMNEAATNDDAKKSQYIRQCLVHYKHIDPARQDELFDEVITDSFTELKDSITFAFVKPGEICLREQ

B1: His6-tagged Mei5-Sae3 heterodimer (complex, Saccharomyces cerevisiae)
chain 1: MHNQEEWLDKDKTLVNEEENTCINHSYTKKDTNNYRVGKSGIKDLKKPTNQKEIAIKNRELTKQLTLLRQENNHLQQACKILSENKIIENRKSIEKWRTICEMELSFILNSTLIKINRMGGYKDFLEKEMEAKKRRLEYQIDNGMEDQICEIKESDDFRQLSEVEKQEWESQMNEQLKELEKKKIAELEKLNKVLHDSEGKDFGMAELCTRLKLDYSLIFPQ
chain 2: MNYLETQLNKKQKQIQEYESMNGNLIKMFEQLSKEKKNDETPKKISSTYIKELKEYNELRDAGLRLAQIIADEKQCKIKDVFEEIGYSMKD
B2: 84-mer ssDNA (ssDNA)
DNA: GGTAGCGGTTGGGTGAGTGGTGGGGAGGGTCGGGAGGTGGCGTAGAAACATGATAGGAATGTGAATGAATGAAGTACAAGTAAA

Assays:
His6-tagged Dmc1 = target: T1, His6-tagged Dmc1; assay: co-IP
[1] = target: Replication protein A (RPA), Saccharomyces cerevisiae (Saccharomyces cerevisiae, UniProt P22336 1-621; P26754 1-273; P26755 1-122); assay: pull-down
Rdh54/Tid1 = target: T2, Rdh54/Tid1; assay: fluorescence polarization

Sequence of Replication protein A (RPA), Saccharomyces cerevisiae (P22336 whole entry, chain 1 of 3): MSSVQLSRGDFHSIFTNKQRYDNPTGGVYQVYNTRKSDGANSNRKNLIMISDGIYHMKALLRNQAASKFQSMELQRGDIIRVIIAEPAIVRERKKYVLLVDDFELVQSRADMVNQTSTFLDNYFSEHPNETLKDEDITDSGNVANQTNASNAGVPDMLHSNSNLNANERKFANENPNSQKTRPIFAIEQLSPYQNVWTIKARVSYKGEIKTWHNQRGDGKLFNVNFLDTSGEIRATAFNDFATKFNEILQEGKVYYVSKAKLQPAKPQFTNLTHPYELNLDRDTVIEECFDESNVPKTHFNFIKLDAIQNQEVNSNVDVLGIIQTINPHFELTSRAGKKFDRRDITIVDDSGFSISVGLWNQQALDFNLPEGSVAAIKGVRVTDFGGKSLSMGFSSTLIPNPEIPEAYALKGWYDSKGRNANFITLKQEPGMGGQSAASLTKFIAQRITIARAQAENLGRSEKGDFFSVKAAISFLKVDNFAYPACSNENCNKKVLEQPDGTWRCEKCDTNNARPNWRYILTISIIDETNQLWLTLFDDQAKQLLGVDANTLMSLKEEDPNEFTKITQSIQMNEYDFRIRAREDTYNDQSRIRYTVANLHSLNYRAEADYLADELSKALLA
Sequence of Replication protein A (RPA), Saccharomyces cerevisiae (P26754 whole entry, chain 2 of 3): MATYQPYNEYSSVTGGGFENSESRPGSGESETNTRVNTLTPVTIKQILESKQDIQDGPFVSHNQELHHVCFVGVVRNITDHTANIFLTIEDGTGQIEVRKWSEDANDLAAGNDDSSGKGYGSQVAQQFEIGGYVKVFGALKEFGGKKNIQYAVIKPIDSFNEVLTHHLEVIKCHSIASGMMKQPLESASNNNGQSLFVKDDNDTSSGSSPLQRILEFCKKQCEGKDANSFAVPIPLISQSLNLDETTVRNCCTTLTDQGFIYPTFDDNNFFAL
Sequence of Replication protein A (RPA), Saccharomyces cerevisiae (P26755 whole entry, chain 3 of 3): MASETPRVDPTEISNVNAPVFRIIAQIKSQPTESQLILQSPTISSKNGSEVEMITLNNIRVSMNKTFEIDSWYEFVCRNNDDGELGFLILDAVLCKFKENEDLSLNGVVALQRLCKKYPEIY

Row | Binder | binding result (His6-tagged Dmc1) | binding result [1] | Kd (Rdh54/Tid1) [nM]
1 | B1 | binds | binds | –
2 | B2 | – | – | 230
